Results taken from US20140223606, “COMPOSITIONS AND METHODS COMPRISING SEQUENCES HAVING MEGANUCLEASE ACTIVITY” (PIONEER HI BRED INTERNATIONAL INC, published 2014).

T1: LIG3-4(B73) (artificial)
T1 chain: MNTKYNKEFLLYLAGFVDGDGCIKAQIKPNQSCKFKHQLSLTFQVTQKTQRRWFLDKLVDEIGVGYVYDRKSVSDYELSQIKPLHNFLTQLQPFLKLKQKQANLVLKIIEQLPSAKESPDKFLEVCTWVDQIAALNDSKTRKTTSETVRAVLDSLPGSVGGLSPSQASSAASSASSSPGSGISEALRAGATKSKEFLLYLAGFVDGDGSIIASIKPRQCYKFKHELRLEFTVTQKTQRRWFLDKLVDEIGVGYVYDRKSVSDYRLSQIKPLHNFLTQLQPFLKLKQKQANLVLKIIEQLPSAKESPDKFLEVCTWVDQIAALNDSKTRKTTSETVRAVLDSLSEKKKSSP

T2: LIG3-4(B70) (artificial)
T2 chain: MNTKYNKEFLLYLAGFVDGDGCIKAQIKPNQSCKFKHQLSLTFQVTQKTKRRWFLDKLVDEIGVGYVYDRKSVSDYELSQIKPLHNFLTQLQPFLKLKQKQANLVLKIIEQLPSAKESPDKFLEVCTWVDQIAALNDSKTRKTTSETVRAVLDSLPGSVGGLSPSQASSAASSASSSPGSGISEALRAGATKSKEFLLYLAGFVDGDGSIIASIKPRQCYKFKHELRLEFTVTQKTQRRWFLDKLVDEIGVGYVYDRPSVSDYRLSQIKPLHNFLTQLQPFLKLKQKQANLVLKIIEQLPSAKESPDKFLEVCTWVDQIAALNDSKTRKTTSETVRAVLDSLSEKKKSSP

T3: LIG3-4(B76) (artificial)
T3 chain: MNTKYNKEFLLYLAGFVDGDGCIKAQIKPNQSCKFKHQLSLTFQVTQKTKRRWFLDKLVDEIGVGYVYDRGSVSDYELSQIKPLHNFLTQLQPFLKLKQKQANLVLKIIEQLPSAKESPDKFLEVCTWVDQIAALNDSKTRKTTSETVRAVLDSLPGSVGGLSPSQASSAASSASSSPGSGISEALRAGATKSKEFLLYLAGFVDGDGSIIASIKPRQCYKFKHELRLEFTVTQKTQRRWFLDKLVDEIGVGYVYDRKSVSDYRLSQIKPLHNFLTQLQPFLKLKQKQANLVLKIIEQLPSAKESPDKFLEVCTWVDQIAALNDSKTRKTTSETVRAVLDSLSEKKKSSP

T4: LIG3-4(B82) (artificial)
T4 chain: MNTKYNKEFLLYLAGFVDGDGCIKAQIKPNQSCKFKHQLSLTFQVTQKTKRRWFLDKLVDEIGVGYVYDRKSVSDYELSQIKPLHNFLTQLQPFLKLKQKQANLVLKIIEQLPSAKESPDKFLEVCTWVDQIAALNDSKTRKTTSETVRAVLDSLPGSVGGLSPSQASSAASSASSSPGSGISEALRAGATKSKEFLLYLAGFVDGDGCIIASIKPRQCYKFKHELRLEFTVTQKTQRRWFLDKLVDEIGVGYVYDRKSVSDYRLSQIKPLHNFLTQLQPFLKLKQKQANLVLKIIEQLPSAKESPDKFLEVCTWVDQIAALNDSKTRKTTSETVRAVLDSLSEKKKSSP

T5: MHP14(14) (artificial)
T5 chain: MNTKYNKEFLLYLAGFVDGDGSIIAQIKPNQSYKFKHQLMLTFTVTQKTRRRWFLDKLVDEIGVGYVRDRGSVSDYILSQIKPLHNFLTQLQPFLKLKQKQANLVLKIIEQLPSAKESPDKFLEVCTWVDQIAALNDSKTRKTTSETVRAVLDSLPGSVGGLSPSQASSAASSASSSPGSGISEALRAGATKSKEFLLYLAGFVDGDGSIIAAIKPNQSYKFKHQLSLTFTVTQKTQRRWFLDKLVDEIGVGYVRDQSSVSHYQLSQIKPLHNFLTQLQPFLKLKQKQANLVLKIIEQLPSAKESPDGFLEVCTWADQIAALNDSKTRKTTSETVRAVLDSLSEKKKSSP

B1: LIG3-4 recognition site (dsDNA)
DNA 1: ATATACCTCACACGTACGCGTA
DNA 2: TACGCGTACGTGTGAGGTATAT
B2: MHP14 recognition site (dsDNA)
DNA 1: CAAACAGATTCACGTCAGATTT
DNA 2: AAATCTGACGTGAATCTGTTTG

Key:
Conditions in all cases: tags: NLS, 6xHis
LIG3-4(B73) = molecular target: T1, LIG3-4(B73); test: cell_activity; yeast 30 C; 22 C: 4
Description: (§1) A 3 mL culture of selective media (MP Biomedical) was inoculated with a single colony of the yeast screening strain and grown at 30° C. overnight. On the following day, a 50 ml YPD culture (MP Biomedical) was started with 2 ml of the overnight culture and grown at 30° C. overnight. On the following day, the cells were harvested by centrifugation at 4000 rpm. The cells were resuspended in 100 ml ice cold water and centrifuged again. The cells were then washed in 1.2 M sorbitol, followed by treatment with 2 ml of 10 mM Tris pH 8.0, 1 mM EDTA, 100 mM Lithium acetate, 10 mM DTT, 0.6M sorbitol for 30 minutes at 30° C. with shaking. The cells were recovered by centrifugation, washed in 40 ml 1.2M sorbitol and finally resuspended in 250 microliters of 1.2M sorbitol. 50 microliter aliquots were transferred to test tubes on ice. Up to 5 microliters of DNA (100-500 nanograms) were added. The suspension was transferred to a 0.2 cm electroporation cuvette, on ice. Electroporation was performed with a pulse charge at 1.5 kV, 200 ohms, 25 microF (pulse time of 5 milliseconds). 1 mL YPD media (MP Biomedical) was added and the cells were allowed to recover at 30° C. for 1-2 hr. The cells were centrifuged, resuspended in 100 uL 1M sorbitol and plated on selective media lacking leucine and containing 2% galactose. The resulting yeast colonies were incubated at various temperatures ranging from 22 to 37 degrees Celsius for 7-10 days. I-CreI and meganucleases derived from it have maximal activity at or above 37 degrees Celsius. Screening was performed at a range of temperatures from 22 to 37 degrees in order to observe increases in activity at lower temperatures which are relevant to certain biological systems (eg. plant cells, plant cell cultures, etc). At that time the red/white sectoring phenotype, indicative of meganuclease activity was observed. Colonies with increased white sectoring over the parental meganuclease (indicating colonies expressing a meganuclease with increased meganuclease activity), also referred to as “hits” and sometimes completely white, were isolated for further analysis.

LIG3-4(B70) = molecular target: T2, LIG3-4(B70); test: cell_activity; yeast 30 C; 22 C: 4
Description: as §1

LIG3-4(B76) = molecular target: T3, LIG3-4(B76); test: cell_activity; yeast 30 C; 22 C: 4
Description: as §1

LIG3-4(B82) = molecular target: T4, LIG3-4(B82); test: cell_activity; yeast 30 C; 22 C: 4
Description: as §1

MHP14(14) = molecular target: T5, MHP14(14); test: cell_activity; yeast 37 C; 28 C: 1
Description: A 3 mL culture of selective media (MP Biomedical) was inoculated with a single colony of the yeast screening strain and grown at 30° C. overnight. On the following day, a 50 ml YPD culture (MP Biomedical) was started with 2 ml of the overnight culture and grown at 30° C. overnight. On the following day, the cells were harvested by centrifugation at 4000 rpm. The cells were resuspended in 100 ml ice cold water and centrifuged again. The cells were then washed in 1.2 M sorbitol, followed by treatment with 2 ml of 10 mM Tris pH 8.0, 1 mM EDTA, 100 mM Lithium acetate, 10 mM DTT, 0.6M sorbitol for 30 minutes at 30° C. with shaking. The cells were recovered by centrifugation, washed in 40 ml 1.2M sorbitol and finally resuspended in 250 microliters of 1.2M sorbitol. 50 microliter aliquots were transferred to test tubes on ice. Up to 5 microliters of DNA (100-500 nanograms) were added. The suspension was transferred to a 0.2 cm electroporation cuvette, on ice. Electroporation was performed with a pulse charge at 1.5 kV, 200 ohms, 25 microF (pulse time of 5 milliseconds). 1 mL YPD media (MP Biomedical) was added and the cells were allowed to recover at 30° C. for 1-2 hr. The cells were centrifuged, resuspended in 100 uL 1M sorbitol and plated on selective media lacking leucine and containing 2% galactose. The resulting yeast colonies were incubated at various temperatures ranging from 22 to 37 degrees Celsius for 7-10 days. I-CreI and meganucleases derived from it have maximal activity at or above 37 degrees Celsius. Screening was performed at a range of temperatures from 22 to 37 degrees in order to observe increases in activity at lower temperatures which are relevant to certain biological systems (eg. plant cells, plant cell cultures, etc). At that time the red/white sectoring phenotype, indicative of meganuclease activity was observed. Colonies with increased white sectoring over the parental meganuclease (indicating colonies expressing a meganuclease with increased meganuclease activity), also referred to as “hits” and sometimes completely white, were isolated for further analysis. […]

Binder	activity (LIG3-4(B73)) [score 0-4]	activity (LIG3-4(B70)) [score 0-4]	activity (LIG3-4(B76)) [score 0-4]	activity (LIG3-4(B82)) [score 0-4]	activity (MHP14(14)) [score 0-4]
B1	4	4	4	4	
B2					4
